T1: B3GNT2 (Homo sapiens, UniProt Q9NY97)
T1 construct: The respective ORFs of candidate genes [CD274 (NM_014143), MCL1 (NM_021960), JUNB (NM_002229), and B3GNT2 (NM_006577)] were synthesized; expressed in transfected cells; host or cells: A375 melanoma cells (lentiviral ORF overexpression)
T1 sequence (Q9NY97 1-397): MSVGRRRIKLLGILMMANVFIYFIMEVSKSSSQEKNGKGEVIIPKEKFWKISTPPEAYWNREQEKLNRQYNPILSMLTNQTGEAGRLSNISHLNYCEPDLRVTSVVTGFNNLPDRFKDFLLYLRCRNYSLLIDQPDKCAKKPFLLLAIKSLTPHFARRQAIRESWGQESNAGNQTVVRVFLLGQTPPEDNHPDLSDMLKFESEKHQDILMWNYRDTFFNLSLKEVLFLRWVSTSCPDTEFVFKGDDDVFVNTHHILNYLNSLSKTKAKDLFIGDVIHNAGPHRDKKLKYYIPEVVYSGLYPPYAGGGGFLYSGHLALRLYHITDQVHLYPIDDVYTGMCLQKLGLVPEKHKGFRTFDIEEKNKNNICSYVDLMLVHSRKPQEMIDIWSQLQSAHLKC


Target: T1, B3GNT2
Assay: Co-IP of FLAG-tagged B3GNT2 followed by mass spectrometry
Type: cell-based
Parameters: C-term IgG / C-term flag: unit not given here
Conditions: Co-IP followed by mass spectrometry of B3GNT2; for C-term flag / C-term IgG: C-term tag; for C-term flag / N-term FLAG: FLAG pull-down; for C-term IgG / N-term IgG: IgG pull-down; for N-term FLAG / N-term IgG: N-term tag
Outline: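 Co-purifying proteins were identified by fractionated nano-LC–MS/MS on an Orbitrap Elite, run data-dependent. Beforehand, lysates in 1% Triton X-100/HEPES buffer were incubated overnight at 4° C with anti-FLAG or […] and pulled down on Protein A/G magnetic beads for 4 h. Duplicate biological replicates.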

| Molecule | C-term flag | C-term IgG | N-term FLAG | N-term IgG |
| --- | --- | --- | --- | --- |
| JUP (protein) MEVMNLMEQPIKVTEWQQTYTYDSGIHSGANTCVPSVSSKGIMEEDEACGRQYTLKKTTTYTQGVPPSQGDLEYQMSTTARAKRVREAMCPGVSGEDSSLLLATQVEGQATNLQRLAEPSQLLKSAIVHLINYQDDAELATRALPELTKLLNDEDPVVVTKAAMIVNQLSKKEASRRALMGSPQLVAAVVRTMQNTSDLDTARCTTSILHNLSHHREGLLAIFKSGGIPALVRMLSSPVESVLFYAITTLHNLLLYQEGAKMAVRLADGLQKMVPLLNKNNPKFLAITTDCLQLLAYGNQESKLIILANGGPQALVQIMRNYSYEKLLWTTSRVLKVLSVCPSNKPAIVEAGGMQALGKHLTSNSPRLVQNCLWTLRNLSDVATKQEGLESVLKILVNQLSVDDVNVLTCATGTLSNLTCNNSKNKTLVTQNSGVEALIHAILRAGDKDDITEPAVCALRHLTSRHPEAEMAQNSVRLNYGIPAIVKLLNQPNQWPLVKATIGLIRNLALCPANHAPLQEAAVIPRLVQLLVKAHQDAQRHVAAGTQQPYTDGVRMEEIVEGCTGALHILARDPMNRMEIFRLNTIPLFVQLLYSSVENIQRVAAGVLCELAQDKEAADAIDAEGASAPLMELLHSRNEGTATYAAAVLFRISEDKNPDYRKRVSVELTNSLFKHDPAAWEAAQSMIPINEPYGDDMDATYRPMYSSDVPLDPLEMHMDMDGDYPIDTYSDGLRPPYPTADHMLA | 43 | 36 | 47 | 39 |
| DDX3X (protein) SHVAVENALGLDQQFAGLDLNSSDNQSGGSTASKGRYIPPHLRNREATKGFYDKDSSGWSSSKDKDAYSSFGSRSDSRGKSSFFSDRGSGSRGRFDDRGRSDYDGIGSRGDRSGFGKFERGGNSRWCDKSDEDDWSKPLPPSERLEQELFSGGNTGINFEKYDDIPVEATGNNCPPHIESFSDVEMGEIIMGNIELTRYTRPTPVQKHAIPIIKEKRDLMACAQTGSGKTAAFLLPILSQIYSDGPGEALRAMKENGRYGRRKQYPISLVLAPTRELAVQIYEEARKFSYRSRVRPCVVYGGADIGQQIRDLERGCHLLVATPGRLVDMMERGKIGLDFCKYLVLDEADRMLDMGFEPQIRRIVEQDTMPPKGVRHTMMFSATFPKEIQMLARDFLDEYIFLAVGRVGSTSENITQKVVWVEESDKRSFLLDLLNATGKDSLTLVFVETKKGADSLEDFLYHEGYACTSIHGDRSQRDREEALHQFRSGKSPILVATAVAARGLDISNVKHVINFDLPSDIEEYVHRIGRTGRVGNLGLATSFFNERNINITKDLLDLLVEAKQEVPSWLENMAYEHHYKGSSRGRSKSSRFSGGFGARDYRQSSGASSSSFSSSRASSSRSGGGGHGSSRGFGGGGYGGFYNSDGYGGNYNSQGVDWWGN | 23 | 15 | 18 | 19 |
| CPSF7 (protein) MSEGVDLIDIYADEEFNQDPEFNNTDQIDLYDDVLTATSQPSDDRSSSTEPPPPVRQEPSPKPNNKTPAILYTYSGLRNRRAAVYVGSFSWWTTDQQLIQVIRSIGVYDVVELKFAENRANGQSKGYAEVVVASENSVHKLLELLPGKVLNGEKVDVRPATRQNLSQFEAQARKRECVRVPRGGIPPRAHSRDSSDSADGRATPSENLVPSSARVDKPPSVLPYFNRPPSALPLMGLPPPPIPPPPPLSSSFGVPPPPPGIHYQHLMPPPPRLPPHLAVPPPGAIPPALHLNPAFFPPPNATVGPPPDTYMKASAPYNHHGSRDSGPPPSTVSEAEFEDIMKRNRAISSSAISKAVSGASAGDYSDAIETLLTAIAVIKQSRVANDERCRVLISSLKDCLHGIEAKSYSVGASGSSSRKRHRSRERSPSRSRESSRRHRDLLHNEDRHDDYFQERNREHERHRDRERDRHH | 9 | 9 | 12 | 8 |
| P4HA2 (protein) EFFTSIGHMTDLIYAEKELVQSLKEYILVEEAKLSKIKSWANKMEALTSKSAADAEGYLAHPVNAYKLVKRLNTDWPALEDLVLQDSAAGFIANLSVQRQFFPTDEDEIGAAKALMRLQDTYRLDPGTISRGELPGTKYQAMLSVDDCFGMGRSAYNEGDYYHTVLWMEQVLKQLDAGEEATTTKSQVLDYLSYAVFQLGDLHRALELTRRLLSLDPSHERAGGNLRYFEQLLEEEREKTLTNQTEAELATPEGIYERPVDYLPERDVYESLCRGEGVKLTPRRQKRLFCRYHHGNRAPQLLIAPFKEEDEWDSPHIVRYYDVMSDEEIERIKEIAKPKLARATVRDPKTGVLTVASYRVSKSSWLEEDDDPVVARVNRRMQHITGLTVKTAELLQVANYGVGGQYEPHFDFSRNDERDTFKHLGTGNRVATFLNYMSDVEAGGATVFPDLGAAIWPKKGTAVFWYNLLRSGEGDYRTRHAACPVLVGCKWVSNKWFHERGQEFLRPCGSTEVD | 4 | 0 | 0 | 0 |

More lines, now with the values ahead:

| C-term flag | C-term IgG | N-term FLAG | N-term IgG | Molecule |
| --- | --- | --- | --- | --- |
| 4 | 0 | 0 | 0 | PLOD1 (protein) KGDAKPEDNLLVLTVATKETEGFRRFKRSAQFFNYKIQALGLGEDWNVEKGTSAGGGQKVRLLKKALEKHADKEDLVILFADSYDVLFASGPRELLKKFRQARSQVVFSAEELIYPDRRLETKYPVVSDGKRFLGSGGFIGYAPNLSKLVAEWEGQDSDSDQLFYTKIFLDPEKREQINITLDHRCRIFQNLDGALDEVVLKFEMGHVRARNLAYDTLPVLIHGNGPTKLQLNYLGNYIPRFWTFETGCTVCDEGLRSLKGIGDEALPTVLVGVFIEQPTPFVSLFFQRLLRLHYPQKHMRLFIHNHEQHHKAQVEEFLAQHGSEYQSVKLVGPEVRMANADARNMGADLCRQDRSCTYYFSVDADVALTEPNSLRLLIQQNKNVIAPLMTRHGRLWSNFWGALSADGYYARSEDYVDIVQGRRVGVWNVPYISNIYLIKGSALRGELQSSDLFHHSKLDPDMAFCANIRQQDVFMFLTNRHTLGHLLSLDSYRTTHLHNDLWEVFSNPEDWKEKYIHQNYTKALAGKLVETPCPDVYWFPIFTEVACDELVEEMEHFGQWSLGNNKDNRIQGGYENVPTIDIHMNQIGFEREWHKFLLEYIAPMTEKLYPGYYTRAQFDLAFVVRYKPDEQPSLMPHHDASTFTINIALNRVGVDYEGGGCRFLRYNCSIRAPRKGWTLMHPGRLTHYHEGLPTTRGTRYIAVSFVDP |
| 4 | 0 | 0 | 0 | TTC13 (protein) MAPAGCCCCCCFWGGAVAAAGAARRVLLLLLLGVLSAGLRPGALATEHYSPLSLLKQELQHRQQQEAPAGGGGCSPQSGDWGDQYSAECGESSFLNFHDSDCEPKGSSPCDSLLSLNTEKILSQAKSIAEQKRFPFATDNDSTNEELAIAYVLIGSGLYDEAIRHFSTMLQILSPLGRINEAVNDLTKAIQLQPSARLYRHRGTLYFISEDYATAHEDFQQSLELNKNQPIAMLYKGLTFFHRGLLKEAIESFKEALKQKVDFIDAYKSLGQAYRELGNFEAATESFQKALLLNQNHVQTLQLRGMMLYHHGSLQEALKNFKRCLQLEPYNEVCQYMKGLSHVAMGQFYEGIKAQTKVMLNDPLPGQKASPEYLKVKYLREYSRYLHAHLDTPLTEYNIDVDLPGSFKDHWAKNLPFLIEDYEEQPGLQPHIKDVLHQNFESYKPEVQELICVADRLGSLMQYETPGFLPNKRIHRAMGLAALEVMQAVQRTWTNSKVRMNGKTRLMQWRDMFDIAVKWRRIADPDQPVLWLDQMPARSLSRGFNNHINLIRGQVINMRYLEYFEKILHFIKDRILVYHGANNPKGLLEVREALEKVHKVEDLLPIMKFNTKTKDGFTVNTKVPSLKDQGKEYDGFTITITGDKVGNILFSVETQTTEERTQLYHAEIDALYKDLTAKGKVLILSSEFGEADAVCNLILSLVYYFYNLMPLSRGSSVIAYSVIVGALMASGKEVAGKIPKGKLVDFEAMTAPGSEAFSKVAKSWMNLKSISPSYKTLPSVSETFPTLRSMIEVLNTDSSPRCLKKL |
| 2 | 0 | 2 | 0 | XPOT (protein) MDEQALLGLNPNADSDFRQRALAYFEQLKISPDAWQVCAEALAQRTYSDDHVKFFCFQVLEHQVKYKYSELTTVQQQLIRETLISWLQAQMLNPQPEKTFIRNKAAQVFALLFVTEYLTKWPKFFFDILSVVDLNPRGVDLYLRILMAIDSELVDRDVVHTSEEARRNTLIKDTMREQCIPNLVESWYQILQNYQFTNSEVTCQCLEVVGAYVSWIDLSLIANDRFINMLLGHMSIEVLREEACDCLFEVVNKGMDPVDKMKLVESLCQVLQSAGFFSIDQEEDVDFLARFSKLVNGMGQSLIVSWSKLIKNGDIKNAQEALQAIETKVALMLQLLIHEDDDISSNIIGFCYDYLHILKQLTVLSDQQKANVEAIMLAVMKKLTYDEEYNFENEGEDEAMFVEYRKQLKLLLDRLAQVSPELLLASVRRVFSSTLQNWQTTRFMEVEVAIRLLYMLAEALPVSHGAHFSGDVSKASALQDMMRTLVTSGVSSYQHTSVTLEFFETVVRYEKFFTVEPQHIPCVLMAFLDHRGLRHSSAKVRSRTAYLFSRFVKSLNKQMNPFIEDILNRIQDLLELSPPENGHQSLLSSDDQLFIYETAGVLIVNSEYPAERKQALMRNLLTPLMEKFKILLEKLMLAQDEERQASLADCLNHAVGFASRTSKAFSNKQTVKQCGCSEVYLDCLQTFLPALSCPLQKDILRSGVRTFLHRMIICLEEEVLPFIPSASEHMLKDCEAKDLQEFIPLINQITAKFKIQVSPFLQQMFMPLLHAIFEVLLRPAEENDQSAALEKQMLRRSYFAFLQTVTGSGMSEVIANQGAENVERVLVTVIQGAVEYPDPIAQKTCFIILSKLVELWGGKDGPVGFADFVYKHIVPACFLAPLKQTFDLADAQTVLALSECAVTLKTIHLKRGPECVQYLQQEYLPSLQVAPEIIQEFCQALQQPDAKVFKNYLKVFFQRAKP |

From patent US20240261333A1, “NOVEL TARGETS FOR ENHANCING ANTI-TUMOR IMMUNITY” (THE BROAD INSTITUTE, INC., priority 2021, published 2024)
